Consider 13 molecules from patent US20260028398A1 (SUZHOU DIMA BIOTECHNOLOGY, published 2026).

Assay [1] deals with T1, human GPRC5D (human, UniProt Q9NZD1 1-345).
T1 construct: whole, on cells; Target always presented on cells (K562-GPRC5D, RPMI 8226, MM.1S, NCI-H929); also called GPRC5D protein
The assay can be described thus: flow cytometry, scFv-hFc at 20 ug/ml on MM.1S and NCI-H929 cells. A general note: In flow cytometry, cells or beads pass a laser one at a time.

Assay [2] deals with T1, human GPRC5D. The assay can be described thus: flow cytometry, scFv-hFc titrated on K562-GPRC5D and RPMI 8226 cells; G00 told only as the weaker comparator.
For assay [3], the target named is T1, human GPRC5D. Description: flow cytometry, bispecific antibody titrated on NCI-H929 cells, APC anti-human IgG. The method, then: NCI-H929 and Jurkat cells were cultured for 48 hours, counted, and plated at a density of 2×10⁵ cells in 96-well V-bottom plates. The bispecific antibodies were serially diluted in PBS, with Talquetamab used as a positive control. The starting concentration was 100 μg/ml, followed by 1:5, 1:2, 1:2, 1:2, 1:2, 1:2, 1:2, 1:2 serial dilutions, resulting in […] for testing. 100 μl of proteins was added to each well with 200,000 cells. The BsAb was incubated with cells at 4° C. for 1 hour, washed three times with PBS and 0.2% FBS, and then APC-conjugated anti-human IgG mAb was added to each well. The cells were incubated with the secondary antibody for 1 hour at 4° C., washed three times again with PBS and 0.2% FBS, and then analyzed using flow cytometry.

Assay [4] concerns the target T1, human GPRC5D. Description: flow cytometry, IgG1 antibody titrated on K562-GPRC5D cells.

T1 sequence (Q9NZD1 whole entry): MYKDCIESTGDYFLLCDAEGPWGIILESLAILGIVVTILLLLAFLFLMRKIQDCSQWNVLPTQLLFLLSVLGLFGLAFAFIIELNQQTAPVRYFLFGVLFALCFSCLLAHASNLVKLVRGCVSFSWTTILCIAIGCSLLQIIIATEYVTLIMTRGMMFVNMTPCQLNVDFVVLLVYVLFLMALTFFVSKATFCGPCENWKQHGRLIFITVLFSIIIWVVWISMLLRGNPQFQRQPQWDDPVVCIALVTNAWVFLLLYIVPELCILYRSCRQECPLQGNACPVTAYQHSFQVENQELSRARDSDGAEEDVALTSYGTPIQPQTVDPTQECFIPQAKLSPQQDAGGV

B1: G02 scFv-hFc humanized IgG1 format antibody (Fc fusion)
chain: DIQMTQSPSTLSASVGDRVIINCQASQSVYNNNLLSWYQQKPGKAPKLLIYAASNLASGVPSRFSGSGSGAEFTLTISSLQPDDFATYYCQGYYGGAICAFGQGTKLTVLGGGGSGGGGSGGGGSEVQLVESGGGLVQPGGSLRLSCTASGFSLSSNAMSWVRQAPGKGLEWIGSIGRSGSTYNANWAKGRFTISRDNSKNTVYLQMNSLRAEDTAVYFCAKFTGGVSGGYFSVWGPGTLVTVSS
notes: not shown: human IgG1 Fc (hFc) of the scFv-hFc vector
Consider B1, for which, in the assay with human GPRC5D [1], the binding result is given as “binds”.

B2: G09 scFv-hFc humanized IgG1 format antibody (Fc fusion)
chain: DIQMTQSPSSLSASVGDRVTITCQASESISNYLSWYQQKPGKVPKLLIYRASTLASGVPSRFSGSGSGTDFTLTISSLQPEDVATYYCQGYDGSASSSNYESAFGQGTKLTVLGGGGSGGGGSGGGGSEVQLVESGGGLVQPGGSLRLSCAASGFSLSNNGITWVRQAPGKGLEWIGIITTTGSAYYAGWAKGRFTISRDNSKNTLYLQMNSLRAEDTAVYYCARGYGIHGLWGPGTLVTVSS
notes: as for B1
Turning to B2, in the assay with human GPRC5D [1], the binding result was “binds”.

B3: control antibody G00 (MCARH109) as scFv-hFc IgG1 format antibody (Fc fusion)
chain: QSALTQPASVSGSPGQSITISCTGTSSDVGGYNYVSWYQQHPGKAPKLMIYDVSKRPSGVSNRFSGSKSGNTASLTISGLQAEDEADYYCSSYTRSSTEVFGGGTKLTVLGSRGGGGSGGGGSGGGGSLEMAEVQLVQSGAEVKKPGASVKVSCKASGYTFTSYYMHWVRQAPGQGLEWMGIINPSGGSTSYAQKFQGRVTMTRDTSTSTVYMELSSLRSEDTAVYYCARGGSKKWSGEKWRRENFDYWGQGTLVTVSS
notes: also called GOO; G00 scFv-hFc; not shown: human IgG1 Fc (hFc) of the scFv-hFc vector
Regarding B3, the binding result with human GPRC5D [2] is given as “binds”.

B4: G05 scFv-hFc humanized IgG1 format antibody (Fc fusion)
chain: DIQMTQSPSSLSASVGDRVTITCQASESISKFLSWYQQKPGKVPKLLIYRASTLASGVPSRFSGSGSGTDFTLTISSLQPEDVATYYCQGYDGSSTTTNYESAFGQGTKLTVLGGGGSGGGGSGGGGSEVQLVESGGGLVQPGGSLRLSCAASGFSLTDNGITWVRQAPGKGLEWIGIMTTGGSTYYAGWAKGRFTISRDNSKNTLYLQMNSLRAEDTATYFCTRGYGIHGLWGPGTLVTVSS
notes: as for B1
On to B4, for which the binding result with human GPRC5D [1] was “binds”.

B5: G07 scFv-hFc humanized IgG1 format antibody (Fc fusion)
chain: DIQMTQSPSSLSASVGDRVTITCQASESVSKFLSWYQQKPGKVPKLLIYRASTLASGVPSRFSGSGSGTDFTLTISSLQPEDVATYYCQGYDGSSTTTNYESAFGQGTKLTVLGGGGSGGGGSGGGGSEVQLVESGGGLVQPGGSLRLSCAASGFSLTDNGITWVRQAPGKGLEWIGIMTTGGTTYYAGWAKGRFTISRDNSKNTLYLQMNSLRAEDTAVYYCARGYGIHGLWGPGTLVTVSS
notes: as for B1
With B5, in the assay with human GPRC5D [1], the binding result was “binds”.

B6: G05 BsAb (GPRC5D&CD3 bispecific antibody) (bispecific antibody)
chain: DIQMTQSPSSLSASVGDRVTITCQASESISKFLSWYQQKPGKVPKLLIYRASTLASGVPSRFSGSGSGTDFTLTISSLQPEDVATYYCQGYDGSSTTTNYESAFGQGTKLTVLGGGGSGGGGSGGGGSEVQLVESGGGLVQPGGSLRLSCAASGFSLTDNGITWVRQAPGKGLEWIGIMTTGGSTYYAGWAKGRFTISRDNSKNTLYLQMNSLRAEDTATYFCTRGYGIHGLWGPGTLVTVSSDKTHTCPPCPAPELLGGPSVFLFPPKPKDTLMISRTPEVTCVVVDVSHEDPEVKFNWYVDGVEVHNAKTKPREEQYNSTYRVVSVLTVLHQDWLNGKEYKCKVSNKALPAPIEKTISKAKGQPREPQVCTLPPSREEMTKNQVSLSCAVKGFYPSDIAVEWESNGQPENNYKTTPPVLDSDGSFFLVSKLTVDKSRWQQGNVFSCSVMHEALHNHYTQKSLSLSPGK
heavy: not shown
light: QAVVTQEPSLTVSPGGTVTLTCGSSTGAVTTSNYANWVQEKPGQAFRGLIGGTNKRAPGTPARFSGSLLGGKAALTLSGAQPEDEAEYYCALWYSNLWVFGGGTKLTVL
notes: not shown: human kappa constant region of vector pTT5-hKappa
Turning to B6, in the assay with human GPRC5D [3], the binding result is “binds”.

B7: G09 BsAb (GPRC5D&CD3 bispecific antibody) (bispecific antibody)
chain: DIQMTQSPSSLSASVGDRVTITCQASESISNYLSWYQQKPGKVPKLLIYRASTLASGVPSRFSGSGSGTDFTLTISSLQPEDVATYYCQGYDGSASSSNYESAFGQGTKLTVLGGGGSGGGGSGGGGSEVQLVESGGGLVQPGGSLRLSCAASGFSLSNNGITWVRQAPGKGLEWIGIITTTGSAYYAGWAKGRFTISRDNSKNTLYLQMNSLRAEDTAVYYCARGYGIHGLWGPGTLVTVSSDKTHTCPPCPAPELLGGPSVFLFPPKPKDTLMISRTPEVTCVVVDVSHEDPEVKFNWYVDGVEVHNAKTKPREEQYNSTYRVVSVLTVLHQDWLNGKEYKCKVSNKALPAPIEKTISKAKGQPREPQVCTLPPSREEMTKNQVSLSCAVKGFYPSDIAVEWESNGQPENNYKTTPPVLDSDGSFFLVSKLTVDKSRWQQGNVFSCSVMHEALHNHYTQKSLSLSPGK
heavy: not shown
light: QAVVTQEPSLTVSPGGTVTLTCGSSTGAVTTSNYANWVQEKPGQAFRGLIGGTNKRAPGTPARFSGSLLGGKAALTLSGAQPEDEAEYYCALWYSNLWVFGGGTKLTVL
notes: as for B6
With B7, the binding result with human GPRC5D [3] is given as “binds”.

B8: G00 BsAb (GPRC5D&CD3 bispecific antibody with the control scFv G00) (bispecific antibody)
chain: QSALTQPASVSGSPGQSITISCTGTSSDVGGYNYVSWYQQHPGKAPKLMIYDVSKRPSGVSNRFSGSKSGNTASLTISGLQAEDEADYYCSSYTRSSTEVFGGGTKLTVLGSRGGGGSGGGGSGGGGSLEMAEVQLVQSGAEVKKPGASVKVSCKASGYTFTSYYMHWVRQAPGQGLEWMGIINPSGGSTSYAQKFQGRVTMTRDTSTSTVYMELSSLRSEDTAVYYCARGGSKKWSGEKWRRENFDYWGQGTLVTVSSDKTHTCPPCPAPELLGGPSVFLFPPKPKDTLMISRTPEVTCVVVDVSHEDPEVKFNWYVDGVEVHNAKTKPREEQYNSTYRVVSVLTVLHQDWLNGKEYKCKVSNKALPAPIEKTISKAKGQPREPQVCTLPPSREEMTKNQVSLSCAVKGFYPSDIAVEWESNGQPENNYKTTPPVLDSDGSFFLVSKLTVDKSRWQQGNVFSCSVMHEALHNHYTQKSLSLSPGK
heavy: not shown
light: QAVVTQEPSLTVSPGGTVTLTCGSSTGAVTTSNYANWVQEKPGQAFRGLIGGTNKRAPGTPARFSGSLLGGKAALTLSGAQPEDEAEYYCALWYSNLWVFGGGTKLTVL
notes: also called GOO; not shown: human kappa constant region of vector pTT5-hKappa
Regarding B8, in the assay with human GPRC5D [3], the binding result is reported as “binds”.

B9: G07 BsAb (GPRC5D&CD3 bispecific antibody) (bispecific antibody)
chain: DIQMTQSPSSLSASVGDRVTITCQASESVSKFLSWYQQKPGKVPKLLIYRASTLASGVPSRFSGSGSGTDFTLTISSLQPEDVATYYCQGYDGSSTTTNYESAFGQGTKLTVLGGGGSGGGGSGGGGSEVQLVESGGGLVQPGGSLRLSCAASGFSLTDNGITWVRQAPGKGLEWIGIMTTGGTTYYAGWAKGRFTISRDNSKNTLYLQMNSLRAEDTAVYYCARGYGIHGLWGPGTLVTVSSDKTHTCPPCPAPELLGGPSVFLFPPKPKDTLMISRTPEVTCVVVDVSHEDPEVKFNWYVDGVEVHNAKTKPREEQYNSTYRVVSVLTVLHQDWLNGKEYKCKVSNKALPAPIEKTISKAKGQPREPQVCTLPPSREEMTKNQVSLSCAVKGFYPSDIAVEWESNGQPENNYKTTPPVLDSDGSFFLVSKLTVDKSRWQQGNVFSCSVMHEALHNHYTQKSLSLSPGK
heavy: not shown
light: QAVVTQEPSLTVSPGGTVTLTCGSSTGAVTTSNYANWVQEKPGQAFRGLIGGTNKRAPGTPARFSGSLLGGKAALTLSGAQPEDEAEYYCALWYSNLWVFGGGTKLTVL
notes: as for B6
For the molecule B9, in the assay with human GPRC5D [3], the binding result is “binds”.

B10: G02 humanized IgG1-type antibody (native structure) (antibody, V domains shown)
VH: EVQLVESGGGLVQPGGSLRLSCTASGFSLSSNAMSWVRQAPGKGLEWIGSIGRSGSTYNANWAKGRFTISRDNSKNTVYLQMNSLRAEDTAVYFCAKFTGGVSGGYFSVWGPGTLVTVSS
VL: DIQMTQSPSTLSASVGDRVIINCQASQSVYNNNLLSWYQQKPGKAPKLLIYAASNLASGVPSRFSGSGSGAEFTLTISSLQPDDFATYYCQGYYGGAICAFGQGTKLTVL
B10: the binding result with human GPRC5D [4] was “binds”.

B11: G05 humanized IgG1-type antibody (native structure) (antibody, V domains shown)
VH: EVQLVESGGGLVQPGGSLRLSCAASGFSLTDNGITWVRQAPGKGLEWIGIMTTGGSTYYAGWAKGRFTISRDNSKNTLYLQMNSLRAEDTATYFCTRGYGIHGLWGPGTLVTVSS
VL: DIQMTQSPSSLSASVGDRVTITCQASESISKFLSWYQQKPGKVPKLLIYRASTLASGVPSRFSGSGSGTDFTLTISSLQPEDVATYYCQGYDGSSTTTNYESAFGQGTKLTVL
notes: also called G05-mAb
For the molecule B11, the binding result with human GPRC5D [4] was “binds”.

B12: G09 humanized IgG1-type antibody (native structure) (antibody, V domains shown)
VH: EVQLVESGGGLVQPGGSLRLSCAASGFSLSNNGITWVRQAPGKGLEWIGIITTTGSAYYAGWAKGRFTISRDNSKNTLYLQMNSLRAEDTAVYYCARGYGIHGLWGPGTLVTVSS
VL: DIQMTQSPSSLSASVGDRVTITCQASESISNYLSWYQQKPGKVPKLLIYRASTLASGVPSRFSGSGSGTDFTLTISSLQPEDVATYYCQGYDGSASSSNYESAFGQGTKLTVL
notes: also called G09-mAb
Take B12: the binding result in the assay with human GPRC5D [4] was “binds”.

B13: G07 humanized IgG1-type antibody (native structure) (antibody, V domains shown)
VH: EVQLVESGGGLVQPGGSLRLSCAASGFSLTDNGITWVRQAPGKGLEWIGIMTTGGTTYYAGWAKGRFTISRDNSKNTLYLQMNSLRAEDTAVYYCARGYGIHGLWGPGTLVTVSS
VL: DIQMTQSPSSLSASVGDRVTITCQASESVSKFLSWYQQKPGKVPKLLIYRASTLASGVPSRFSGSGSGTDFTLTISSLQPEDVATYYCQGYDGSSTTTNYESAFGQGTKLTVL
notes: also called G07-mAb
Regarding B13, the binding result in the assay with human GPRC5D [4] is given as “binds”.
